From the supplement of paper PMC10567573 come the findings set out here.

± gives the standard deviation.

The nature of this data set: protein stability index of a GFP-peptide fusion (GPS, HEK-293T) (PSI 1-6); higher = more stable. The settings on record: c terminus: a fixed tail appended.
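Note: 24-mer peptide tiles fused after GFP, lentivirally expressed, FACS-sorted into six equal bins by GFP/DsRed ratio, decoded by Illumina sequencing, PSI is the read-weighted mean bin number.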

Take VSREENREDKATIKCETSPPSSPR [PPFIA4]: the protein stability index was 5.49 ± 0.48 (treatment: DMSO) and 5.53 ± 0.21 (treatment: MLN4924 1 uM, 8 h).

On to VSSLSEVEEVDMAEEFEQPTLSCE [ELOA2], for which the protein stability index amounted to 5.57 ± 0.27 (treatment: DMSO) and 5.52 ± 0.17 (treatment: MLN4924 1 uM, 8 h).

As for VTQMNHIPMHIDHDRNMDWVSTQL [FADS1], the protein stability index reads like this: (treatment: DMSO) 3.14 ± 0.45; (treatment: MLN4924 1 uM, 8 h) 3.02 ± 0.21.

As for VTSDVNKLSSFYSLKLIKRLYVDK [SERPINB5], the protein stability index by setting is: (treatment: DMSO) 2.18 ± 0.18; (treatment: MLN4924 1 uM, 8 h) 2.29 ± 0.18.

Take VTTTSSASVTTTSNASGRRTSDVR [KRT13]: the protein stability index (treatment: DMSO) was determined as 5.07 ± 0.15 and the protein stability index (treatment: MLN4924 1 uM, 8 h) is 5.24 ± 0.15.

Consider VVAGDTVSTGSTDNSPTSNSLEGG [ADAMTSL2], for which the protein stability index is, setting by setting: (treatment: DMSO) 5.39 ± 0.4; (treatment: MLN4924 1 uM, 8 h) 5.48 ± 0.15.

Consider VVELLLAHGADPTHRLKDGSTMLI [ANKRD17], for which the protein stability index (treatment: DMSO) was determined as 2.13 ± 0.34 and the protein stability index (treatment: MLN4924 1 uM, 8 h) was found to be 2.27 ± 0.85.

VVFLSPLTTFQDQLNRRGEFIQEI [OAS1] came in with a protein stability index (treatment: DMSO) of 2.47 ± 0.5 and a protein stability index (treatment: MLN4924 1 uM, 8 h) of 2.35 ± 0.48.

For WAQYRQGEARFLPKDLDPSLCTHL [CHIT1], the protein stability index by setting is: (treatment: DMSO) 2.65 ± 0.31; (treatment: MLN4924 1 uM, 8 h) 2.78 ± 0.39.

Regarding WDLSEAWMQANYDPLSDSDSMTSQ [ELOA2], the protein stability index reads like this: (treatment: DMSO) 4.34 ± 0.33; (treatment: MLN4924 1 uM, 8 h) 4.45 ± 0.21.

Turning to WEALNMMGLYDGMEHLIYGEPRKL [MAGEA10], the protein stability index came to 2.22 ± 0.59 (treatment: DMSO) and 2.45 ± 0.34 (treatment: MLN4924 1 uM, 8 h).

WFHAKSAELNKEVSTNTAMIQTSK [KRT13] registered a protein stability index (treatment: DMSO) of 4.09 ± 0.24 and a protein stability index (treatment: MLN4924 1 uM, 8 h) of 4.11 ± 0.11.

With WGFGLEELYGLALRFFKEKDGKAF [ACBD3], the protein stability index reads like this: (treatment: DMSO) 2.4 ± 0.12; (treatment: MLN4924 1 uM, 8 h) 2.39 ± 0.61.

As to WGGAPKEGSIWRGAQMEKEWARAL [ZSWIM9], the protein stability index is, setting by setting: (treatment: DMSO) 2.8 ± 0.28; (treatment: MLN4924 1 uM, 8 h) 2.75 ± 0.25.

As to WIAHSEKLPRKVLQHVSEPQAHQE [SPACA9], the protein stability index was 4.11 ± 0.35 (treatment: DMSO) and 4.05 ± 0.34 (treatment: MLN4924 1 uM, 8 h).

Turning to WIPQAGPPELNYGATGECQNFLDP [ZNF449], the protein stability index is 4.29 ± 0.18 (treatment: DMSO) and 4.28 ± 0.27 (treatment: MLN4924 1 uM, 8 h).

On to WKEWGFTGVQEVLSALLRATPGEY [SPAG8], for which the protein stability index came to 2.06 ± 0.78 (treatment: DMSO) and 2.2 ± 0.53 (treatment: MLN4924 1 uM, 8 h).

Turning to WLPLHYAAWQGHLPIVKLLAKQPG [RIPK4], the protein stability index was determined as 1.94 ± 0.24 (treatment: DMSO) and 2.63 ± 0.81 (treatment: MLN4924 1 uM, 8 h).

For WMMQNLLLEEGGLVQVESVNLQVA [UFD1], the protein stability index (treatment: DMSO) came out at 2.1 ± 0.29 and the protein stability index (treatment: MLN4924 1 uM, 8 h) worked out at 2.33 ± 0.59.

WNILKTIALGQMLSLCICGTAITS [SLC35F2] returned a protein stability index (treatment: DMSO) of 3.03 ± 0.37 and a protein stability index (treatment: MLN4924 1 uM, 8 h) of 3.03 ± 0.71.

For WVCQRSTVASMMHRQETVECLKKF [CAMK2B], the protein stability index by setting is: (treatment: DMSO) 2.73 ± 0.51; (treatment: MLN4924 1 uM, 8 h) 2.9 ± 0.52.

Take WYQPSFHGVDLSALRGAAVDEYFR [CARM1]: the protein stability index is 2.71 ± 0.18 (treatment: DMSO) and 2.75 ± 0.34 (treatment: MLN4924 1 uM, 8 h).

As to YDASAIDFSRCDMDGATLCNCALE [ELF3], the protein stability index is, setting by setting: (treatment: DMSO) 3.99 ± 0.32; (treatment: MLN4924 1 uM, 8 h) 4.02 ± 0.33.

In the case of YDPDYIQCPYCQRRFNENAADRHI [ZC2HC1A], the protein stability index came out at 3.84 ± 0.24 (treatment: DMSO) and 4.16 ± 0.34 (treatment: MLN4924 1 uM, 8 h).

On to YLGLPRLEFYRYYQQLKLEGPGEQ [SLC29A1], for which the protein stability index (treatment: DMSO) is 2.54 ± 0.39 and the protein stability index (treatment: MLN4924 1 uM, 8 h) was 2.58 ± 0.38.

On to YLHNHFIGEGMTKYDYLMTLHGVV [TENT5D], for which the protein stability index (treatment: DMSO) was found to be 2.83 ± 0.6 and the protein stability index (treatment: MLN4924 1 uM, 8 h) came to 2.48 ± 0.62.

Take YLHTNVALVAPLLRLENNHCHIEE [VPS39]: the protein stability index (treatment: DMSO) came to 2.33 ± 0.2 and the protein stability index (treatment: MLN4924 1 uM, 8 h) was found to be 2.74 ± 0.34.

For YMMAKKHLEINPDHPIVETLRQKA [HSP90AB1], the protein stability index amounted to 3.01 ± 0.33 (treatment: DMSO) and 3.19 ± 0.39 (treatment: MLN4924 1 uM, 8 h).

In the case of YNCGEESLQSCMHFQPNSPASDLE [NANOGP8], the protein stability index was found to be 4.51 ± 0.19 (treatment: DMSO) and 4.17 ± 0.45 (treatment: MLN4924 1 uM, 8 h).

In turn, YQARKPLWFYNTSLKFFLNKPMLA [RHOBTB3] yielded a protein stability index (treatment: DMSO) of 2.67 ± 0.57 and a protein stability index (treatment: MLN4924 1 uM, 8 h) of 1.97 ± 0.19.

Regarding YQSYFKTIEELQQKILCSKSENAR [KRT33B], the protein stability index runs as follows: (treatment: DMSO) 2.57 ± 0.38; (treatment: MLN4924 1 uM, 8 h) 2.84 ± 0.49.

For the sequence YRHFLKSPNFDGWFKTRRKEMTQK [DENND6A], the protein stability index came to 2.83 ± 0.37 (treatment: DMSO) and 3.24 ± 0.12 (treatment: MLN4924 1 uM, 8 h).

YRWQGRRWEPSGKAEPRLPDRVYI [TBX6]: the protein stability index (treatment: DMSO) is 2.11 ± 0.26 and the protein stability index (treatment: MLN4924 1 uM, 8 h) turned out to be 2.22 ± 0.37.

In the case of YWKDTRTSGVVFTGLMVSLLCLLH [RTN2], the protein stability index reads like this: (treatment: DMSO) 2.3 ± 0.24; (treatment: MLN4924 1 uM, 8 h) 2.2 ± 0.28.

Consider YYFGPCGKYNAMVLELLGPSLEDL [CSNK1G3], for which the protein stability index reads like this: (treatment: DMSO) 3 ± 1.3; (treatment: MLN4924 1 uM, 8 h) 2.66 ± 0.43.
